# The supplement of paper PMC11246515
# ± gives the standard deviation of the averaged measurements.
# Test: total protein half-life in vivo (active degradation + dilution); higher = more stable protein
# [1] = E. coli NCM3722 delta-clpP delta-lon delta-hslV, growth: N-lim chemostat, doubling time 6 h
# [2] = E. coli NCM3722 delta-clpP, growth: N-lim chemostat, doubling time 6 h
# [3] = E. coli NCM3722 delta-hslV, growth: N-lim chemostat, doubling time 6 h
# [4] = E. coli NCM3722 delta-lon, growth: N-lim chemostat, doubling time 6 h
# [5] = E. coli NCM3722 delta-smpB, growth: N-lim chemostat, doubling time 6 h
# [6] = wild type E. coli NCM3722, growth: C-lim chemostat, doubling time 3 h
# [7] = wild type E. coli NCM3722, growth: C-lim chemostat, doubling time 6 h
# [8] = wild type E. coli NCM3722, growth: C-lim chemostat, doubling time 12 h
# [9] = wild type E. coli NCM3722, growth: N-lim chemostat, doubling time 6 h
# [10] = wild type E. coli NCM3722, growth: P-lim chemostat, doubling time 6 h
# [11] = wild type E. coli NCM3722, growth: P-lim chemostat, doubling time 12 h
# [12] = wild type E. coli NCM3722, growth: N-lim chemostat, doubling time 12 h
Sequence,total protein half-life in vivo [1] [h],total protein half-life in vivo [2] [h],total protein half-life in vivo [3] [h],total protein half-life in vivo [4] [h],total protein half-life in vivo [5] [h],total protein half-life in vivo [6] [h],total protein half-life in vivo [7] [h],total protein half-life in vivo [8] [h],total protein half-life in vivo [9] [h],total protein half-life in vivo [10] [h],total protein half-life in vivo [11] [h],total protein half-life in vivo [12] [h]
MLYLTKISNAGSEFTENEQKIADFLQANVSELQSVSSRQMAKQLGISQSSIVKFAQKLGAQGFTELRMALIGEYSASREKTNATALHLHSSITSDDSLEVIARKLNREKELALEQTCALLDYARLQKIIEVISKAPFIQITGLGGSALVGRDLSFKLMKIGYRVACEADTHVQATVSQALKKGDVQIAISYSGSKKEIVLCAEAARKQGATVIAITSLTDSPLRRLAHFTLDTVSGETEWRSSSMSTRTAQNSVTDLLFVGLVQLNDVESLKMIQRSSELTQRLK,6.32 ± 0.32,5.62 ± 0.76,5.52 ± 0.44,5.93 ± 2.8,5.37 ± 0.52,3.04 ± 0.11,5.97 ± 0.46,12.7 ± 3,5.36 ± 0.48,5.74,12 ± 2,–
MMDSLRTAANSLVLKIIFGIIIVSFILTGVSGYLIGGGNNYAAKVNDQEISRGQFENAFNSERNRMQQQLGDQYSELAANEGYMKTLRQQVLNRLIDEALLDQYARELKLGISDEQVKQAIFATPAFQVDGKFDNSRYNGILNQMGMTADQYAQALRNQLTTQQLINGVAGTDFMLKGETDELAALVAQQRVVREATIDVNALAAKQPVTEQEIASYYEQNKNNFMTPEQFRVSYIKLDAATMQQPVSDADIQSYYDQHQDQFTQPQRTRYSIIQTKTEDEAKAVLDELNKGGDFAALAKEKSADIISARNGGDMGWLEDATIPDELKNAGLKEKGQLSGVIKSSVGFLIVRLDDIQPAKVKSLDEVRDDIAAKVKHEKALDAYYALQQKVSDAASNDTESLAGAEQAAGVKATQTGWFSKDNLPEELNFKPVADAIFNGGLVGENGAPGINSDIITVDGDRAFVLRISEHKPEAVKPLADVQEQVKALVQHNKAEQQAKVDAEKLLVDLKAGKGAEAMQAAGLKFGEPKTLSRSGRDPISQAAFALPLPAKDKPSYGMATDMQGNVVLLALDEVKQGSMPEDQKKAMVQGITQNNAQIVFEALMSNLRKEAKIKIGDALEQQ [P0ADY1],6.92 ± 0.99,6.533 ± 0.039,5.89 ± 0.078,6.39 ± 0.26,6.15 ± 0.67,3.05 ± 0.23,5.96 ± 0.096,12.7 ± 1.2,6.17 ± 0.25,5.92 ± 0.088,12.4 ± 0.2,12.8 ± 1.7
MMEGQQHGEQLKRGLKNRHIQLIALGGAIGTGLFLGSASVIQSAGPGIILGYAIAGFIAFLIMRQLGEMVVEEPVAGSFSHFAYKYWGSFAGFASGWNYWVLYVLVAMAELTAVGKYIQFWYPEIPTWVSAAVFFVVINAINLTNVKVFGEMEFWFAIIKVIAVVAMIIFGGWLLFSGNGGPQATVSNLWDQGGFLPHGFTGLVMMMAIIMFSFGGLELVGITAAEADNPEQSIPKATNQVIYRILIFYIGSLAVLLSLMPWTRVTADTSPFVLIFHELGDTFVANALNIVVLTAALSVYNSCVYCNSRMLFGLAQQGNAPKALASVDKRGVPVNTILVSALVTALCVLINYLAPESAFGLLMALVVSALVINWAMISLAHMKFRRAKQEQGVVTRFPALLYPLGNWICLLFMAAVLVIMLMTPGMAISVYLIPVWLIVLGIGYLFKEKTAKAVKAH,5.89 ± 0.35,4.94 ± 0.16,5.65,4.684 ± 0.041,5.14 ± 0.68,2.98,5.81 ± 0.44,11.914 ± 0.0083,5.68 ± 1.1,5.39 ± 0.41,10.1 ± 1.7,9.07 ± 0.36
MMEILRGSPALSAFRINKLLARFQAARLPVHNIYAEYVHFADLNAPLNDDEHAQLERLLKYGPALASHAPQGKLLLVTPRPGTISPWSSKATDIAHNCGLQQVNRLERGVAYYIEAGTLTNEQWQQVTAELHDRMMETVFFALDDAEQLFAHHQPTPVTSVDLLGQGRQALIDANLRLGLALAEDEIDYLQDAFTKLGRNPNDIELYMFAQANSEHCRHKIFNADWVIDGEQQPKSLFKMIKNTFETTPDHVLSAYKDNAAVMEGSEVGRYFADHETGRYDFHQEPAHILMKVETHNHPTAISPWPGAATGSGGEIRDEGATGRGAKPKAGLVGFSVSNLRIPGFEQPWEEDFGKPERIVTALDIMTEGPLGGAAFNNEFGRPALNGYFRTYEEKVNSHNGEELRGYHKPIMLAGGIGNIRADHVQKGEINVGAKLVVLGGPAMNIGLGGGAASSMASGQSDADLDFASVQRDNPEMERRCQEVIDRCWQLGDANPILFIHDVGAGGLSNAMPELVSDGGRGGKFELREILSDEPGMSPLEIWCNESQERYVLAVAADQLPLFDELCKRERAPYAVIGEATEELHLSLHDRHFDNQPIDLPLDVLLGKTPKMTRDVQTLKAKGDALAREGITIADAVKRVLHLPTVAEKTFLVTIGDRSVTGMVARDQMVGPWQVPVANCAVTTASLDSYYGEAMAIGERAPVALLDFAASARLAVGEALTNIAATQIGDIKRIKLSANWMAAAGHPGEDAGLYEAVKAVGEELCPALGLTIPVGKDSMSMKTRWQEGNEEREMTSPLSLVISAFARVEDVRHTITPQLSTEDNALLLIDLGKGNNALGATALAQVYRQLGDKPADVRDVAQLKGFYDAIQALVAQRKLLAYHDRSDGGLLVTLAEMAFAGHCGIDADIATLGDDRLAALFNEELGAVIQVRAADREAVESVLAQHGLADCVHYVGQAVSGDRFVITANGQTVFSESRTTLRVWWAETTWQMQRLRDNPECADQEHQAKSNDADPGLNVKLSFDINEDVAAPYIATGARPKVAVLREQGVNSHVEMAAAFHRAGFDAIDVHMSDLLTGRTGLEDFHALVACGGFSYGDVLGAGEGWAKSILFNDRVRDEFATFFHRPQTLALGVCNGCQMMSNLRELIPGSELWPRFVRNTSDRFEARFSLVEVTQSPSLLLQGMVGSQMPIAVSHGEGRVEVRDAAHLAALESKGLVALRYVDNFGKVTETYPANPNGSPNGITAVTTESGRVTIMMPHPERVFRTVSNSWHPENWGEDGPWMRIFRNARKQLG,5.77 ± 0.51,4.8 ± 0.37,4.73 ± 0.32,5.07 ± 0.55,4.63 ± 0.36,3.03 ± 0.051,5.98 ± 0.39,10.4 ± 0.62,4.72 ± 0.081,6.31 ± 0.075,11.5 ± 0.43,8.05 ± 0.21
MMHRLNLNGYEPDRHHEAAVAFCIHAGTDELTSPVHQHRKGQLILALHGAITCTVENALWMVPPQYAVWIPGGVEHSNQVTANAELCFLFIEPSAVTMPTTCCTLKISPLCRELILTLANRTTTQRAEPMTRRLIQVLFDELPQQPQQQLHLPVSSHPKIRTMVEMMAKGPVEWGALGQWAGFFAMSERNLARLIVKETGLSFRQWRQQLQLIMALQGLVKGDTVQKVAHTLGYDSTTAFITMFKKGLGQTPGRYIARLTTVSPQSAKPDPRQ,4.97 ± 0.56,–,–,–,–,–,–,–,–,–,–,–
